Results: publication doi:10.1101/208041
Residue numbers refer to the chain shown, from its start. Read-outs that look alike come from different tables or passages of the source.

Key:
Assay in all cases: filter binding
[1] = biological target: T1, dMpAgo (catalytically inactive MpAgo) D446A (Marinitoga piezophila) (UniProt H2J4R4); conditions: BrdU at guide 1; for binding signal (fold Kd vs complementary): internal desthiobiotin-TEG before last AA
T1 sequence: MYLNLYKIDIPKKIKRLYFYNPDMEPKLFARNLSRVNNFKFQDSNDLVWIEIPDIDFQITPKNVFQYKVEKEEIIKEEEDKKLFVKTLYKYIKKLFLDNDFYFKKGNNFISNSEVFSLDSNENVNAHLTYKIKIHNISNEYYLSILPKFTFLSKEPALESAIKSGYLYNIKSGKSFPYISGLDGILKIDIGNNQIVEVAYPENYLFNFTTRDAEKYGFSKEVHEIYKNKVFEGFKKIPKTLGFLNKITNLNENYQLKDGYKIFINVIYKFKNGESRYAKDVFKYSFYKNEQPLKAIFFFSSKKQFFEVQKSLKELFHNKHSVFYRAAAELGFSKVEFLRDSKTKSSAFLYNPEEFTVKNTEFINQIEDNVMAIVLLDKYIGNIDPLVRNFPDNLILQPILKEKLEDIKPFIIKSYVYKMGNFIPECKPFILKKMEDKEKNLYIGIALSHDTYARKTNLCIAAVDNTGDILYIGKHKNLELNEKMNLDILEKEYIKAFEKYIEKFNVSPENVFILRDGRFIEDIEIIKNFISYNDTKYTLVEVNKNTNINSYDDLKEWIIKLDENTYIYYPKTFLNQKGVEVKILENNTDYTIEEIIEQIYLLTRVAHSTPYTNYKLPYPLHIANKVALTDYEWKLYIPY

MpAgo WT = biological target: T2, MpAgo WT (Marinitoga piezophila, UniProt H2J4R4 1-639)
T2 sequence: T1 sequence with A446D

[2] = biological target: T3, dMpAgo (catalytically inactive MpAgo) (Marinitoga piezophila, UniProt H2J4R4 1-639, D446A)
T3 sequence: T1 sequence

[3] = biological target: T3, dMpAgo (catalytically inactive MpAgo); remark: listed apart in the source
[4] = biological target: T3, dMpAgo (catalytically inactive MpAgo); remark: listed apart in the source
[5] = biological target: T3, dMpAgo (catalytically inactive MpAgo); remark: listed apart in the source
[6] = biological target: T3, dMpAgo (catalytically inactive MpAgo); remark: listed apart in the source

Molecule: UAUUGUGACAAGAAUGCUGUUAAAAAAAAAAA / GGCAGCAUUCAACAUUCUAGUCACAAUAUACAGCCAAG [32-nt guide / mm10]
- binding signal (fold Kd vs complementary) [1]: > 5

Molecule: UGCGGAUGCCAUAUGCAACUU / GGCAGCAUUCAACCAUAUGGCANCCGCAUACAGCCAAG [A6 guide / I target]
- binding signal ([1]; N = inosine at target 23): 19 % bound

Molecule: UAUUGUGACAAGAAUGCUGUUAAAAAAAAAAA / GGCAGCAUUCAACAUUGUUGUCACAAUAUACAGCCAAG [32-nt guide / mm12]
- binding signal (fold Kd vs complementary) [1]: > 5

B1: gRNA 5'-rC (ssRNA)
RNA: CAUACAACCUACUACCUCAUU
modifications: 5'-OH
- Kd (MpAgo WT): 104 ± 9 nM

B2: BrdU guide / 18-nt target (mixed)
RNA 1: UAUACAACCUACUACCUCAUU
RNA 2: GGACUAUGUAGAUCUAUAAUUAGAGGUAGUAGGUUGUAUCUCAGGAGGUC
modifications: BrdU at guide 1
- Kd [2]: 0.107 ± 0.006 nM

B3: BrdU guide / 15-nt target (mixed)
RNA 1: UAUACAACCUACUACCUCAUU
RNA 2: B2 RNA 2 with G23C, A24U, G25C
modifications: BrdU at guide 1
- Kd [2]: 0.083 ± 0.008 nM

B4: rA guide / OFF target (mixed)
RNA 1: AAUACAACCUACUACCUCAUU
RNA 2: GUUAUGUGUGUGAUUAUAUUUGUUCCAGUUCCUGUGUAAUAGACAUGGAA
- Kd [3]: 112 ± 19 nM

B5: rC guide / OFF target (mixed)
RNA 1: CAUACAACCUACUACCUCAUU
RNA 2: B4 RNA 2
- Kd [3]: 112 ± 18 nM

B6: rU guide / OFF target (mixed)
RNA 1: UAUACAACCUACUACCUCAUU
RNA 2: B4 RNA 2
- Kd [3]: 359 ± 37 nM

B7: dU guide / OFF target (mixed)
RNA 1: UAUACAACCUACUACCUCAUU
RNA 2: B4 RNA 2
modifications: dU at guide 1
- binding result [3]: no binding

B8: gRNA 5'-rA (ssRNA)
RNA: AAUACAACCUACUACCUCAUU
modifications: 5'-OH
- Kd (MpAgo WT): 73 ± 10 nM

B9: rA guide / ON target (mixed)
RNA 1: AAUACAACCUACUACCUCAUU
RNA 2: GGACUAUGAUCUAGAUAUUAAUGAGGUAGUAGGUUGUAUCUCAGGAGGUC
- Kd [3]: 12 ± 2 nM

B10: rU guide / ON target (mixed)
RNA 1: UAUACAACCUACUACCUCAUU
RNA 2: B9 RNA 2
- Kd [3]: 5 ± 0.8 nM

B11: dU guide / ON target (mixed)
RNA 1: UAUACAACCUACUACCUCAUU
RNA 2: B9 RNA 2
modifications: dU at guide 1
- Kd [3]: 0.5 ± 0.067 nM

B12: rC guide / ON target (mixed)
RNA 1: CAUACAACCUACUACCUCAUU
RNA 2: B9 RNA 2
- Kd [3]: 4.6 ± 0.5 nM

B13: gRNA 5'-rU (ssRNA)
RNA: UAUACAACCUACUACCUCAUU
modifications: 5'-OH
- Kd (MpAgo WT): 81 ± 9 nM

B14: A7 guide / mm3 (mixed)
RNA 1: UAGCGGAUGCCAUAUCCAACU
RNA 2: GGCAGCAUUCAACCAUAUGGCAUCCGAAUACAGCCAAG
modifications: BrdU at guide 1
- binding signal [4]: 32 fold Kd vs complementary

B15: A7 guide / mm9 (mixed)
RNA 1: UAGCGGAUGCCAUAUCCAACU
RNA 2: B14 RNA 2 with C21A, A27C
modifications: BrdU at guide 1
- binding signal [4]: 327 fold Kd vs complementary

B16: A6 guide / mm4 (mixed)
RNA 1: UGCGGAUGCCAUAUGCAACUU
RNA 2: B14 RNA 2 with C25A, A27C
modifications: BrdU at guide 1
- binding signal [5]: > 5 fold Kd vs complementary

B17: A6 guide / mm12 (mixed)
RNA 1: UGCGGAUGCCAUAUGCAACUU
RNA 2: B14 RNA 2 with A17C, A27C
modifications: BrdU at guide 1
- binding signal [5]: > 5 fold Kd vs complementary

B18: G7 guide / C target (mixed)
RNA 1: UAGCGGGUGCCAUAUCCAACU
RNA 2: B14 RNA 2 with U23C, A27C
modifications: BrdU at guide 1
- binding result [6]: binds

B19: C7 guide / G target (mixed)
RNA 1: UAGCGGCUGCCAUAUCCAACU
RNA 2: B14 RNA 2 with U23G, A27C
modifications: BrdU at guide 1
- binding result [6]: binds

B20: U6 guide / A target (mixed)
RNA 1: UGCGGUUGCCAUAUGCAACUU
RNA 2: B14 RNA 2 with U23A, A27C
modifications: BrdU at guide 1
- binding result [6]: binds

B21: A7 guide / U target (mixed)
RNA 1: UAGCGGAUGCCAUAUCCAACU
RNA 2: B14 RNA 2 with A27C
modifications: BrdU at guide 1
- binding result [6]: binds

B22: A6 guide / mm7 (mixed)
RNA 1: UGCGGAUGCCAUAUGCAACUU
RNA 2: B14 RNA 2 with A22C, A27C
modifications: BrdU at guide 1
- binding signal [5]: > 5 fold Kd vs complementary

B23: A6 guide / mm10 (mixed)
RNA 1: UGCGGAUGCCAUAUGCAACUU
RNA 2: B14 RNA 2 with G19U, A27C
modifications: BrdU at guide 1
- binding signal [5]: > 5 fold Kd vs complementary

B24: A6 guide / mm11 (mixed)
RNA 1: UGCGGAUGCCAUAUGCAACUU
RNA 2: B14 RNA 2 with U18G, A27C
modifications: BrdU at guide 1
- binding signal [5]: > 5 fold Kd vs complementary

B25: A6 guide / mm8 (mixed)
RNA 1: UGCGGAUGCCAUAUGCAACUU
RNA 2: B14 RNA 2 with C21A, A27C
modifications: BrdU at guide 1
- binding signal [5]: > 5 fold Kd vs complementary

B26: A6 guide / mm3 (mixed)
RNA 1: UGCGGAUGCCAUAUGCAACUU
RNA 2: B14 RNA 2 with G26U, A27C
modifications: BrdU at guide 1
- binding signal [5]: > 5 fold Kd vs complementary

B27: A6 guide / mm5 (mixed)
RNA 1: UGCGGAUGCCAUAUGCAACUU
RNA 2: B14 RNA 2 with C24A, A27C
modifications: BrdU at guide 1
- binding signal [5]: > 5 fold Kd vs complementary

B28: A6 guide / mm2 (mixed)
RNA 1: UGCGGAUGCCAUAUGCAACUU
RNA 2: B14 RNA 2
modifications: BrdU at guide 1
- binding signal [5]: > 5 fold Kd vs complementary

B29: U7 guide / A target (mixed)
RNA 1: UAGCGGUUGCCAUAUCCAACU
RNA 2: B14 RNA 2 with U23A, A27C
modifications: BrdU at guide 1
- binding result [6]: binds

B30: A7 guide / G target (mm7) (mixed)
RNA 1: UAGCGGAUGCCAUAUCCAACU
RNA 2: B14 RNA 2 with U23G, A27C
modifications: BrdU at guide 1
- binding signal [4]: 301 fold Kd vs complementary
